One assay has as its system trypsin. The assay is described as follows: Selectivity profile, amidolytic activity of trypsin. In kind it is biochemical. As to conditions: equimolar DrKIn-I and enzyme active site, trypsin 5 nM. As to the method:
(§1) In each of these experiments, the molar ratio of protease active site to inhibitor was 1:1. The final concentrations of these proteases and their respective substrates were as follows: FXIIa (20 nM)/S-2302 (0.2 mM), FXIa (2.5 nM)/S-2366 (0.2 mM), FXa (10 nM)/S-2222 (1.3 mM), FIXa (200 nM)/Spectrozyme FIXa (1.3 mM), FVIIa (100 nM)/S-2288 (1.3 mM), thrombin (5 nM)/T-1637 (0.2 mM), kallikrein (5 nM)/S-2302 (0.2 mM), plasmin (20 nM)/S-2251 (0.2 mM), tPA (80 nM)/Spectrozyme tPA (0.2 mM), uPA (100 nM)/S-2288 (1.3 mM), APC (10 nM)/Spectrozyme PCa (0.2 mM) and trypsin (5 nM)/S-2222 (0.2 mM). Results shown are means±SD of at least three experiments.
(§2) DrKIn-I, with or without heparin, was screened for its inhibitory activity against trypsin and also against serine proteases in the coagulation cascade (FXIIa, FXIa, FXa, FIXa, FVIIa, thrombin and kallikrein) and in the fibrinolytic system (plasmin, tPA and uPA). The amidolytic activities of these proteases were determined in the presence or absence of equimolar concentrations of DrKIn-I using their respective chromogenic substrates.

In the next assay the target is T1, FXIa (Homo sapiens, UniProt P03951).
T1 construct: factor XIa (FXIa); purchased Haematologic Technologies
The assay is described as follows: Selectivity profile and Ki, amidolytic activity of FXIa. It is filed as biochemical. Here is the method: as §1, §2

For the next assay, the target named is protein C zymogen (PC) (Homo sapiens, UniProt P04070). Briefly: Surface plasmon resonance, immobilized protein C zymogen. It is filed as binding. As to conditions: DrKIn-I 31.25, 62.5, 125 nM. As to the method: A: 70 μg of DrKIn-I in 0.1 ml equilibrating buffer (20 mM Tris-HCl, pH 8.0) was applied to a 5 ml HiTrap Heparin column and eluted with a 50 ml gradient from 0.0-1.0 M NaCl. The salt concentration corresponding to the elution peak was determined to be 0.95 M. B, Binding of DrKIn-I (0.78, 1.56, 2.34, 3.13, 4.68 and 6.25 nM) to immobilized APC was assessed in buffer containing 10 mM HEPES, 0.15 M NaCl, 3 mM EDTA and 0.05% P20 at a flow rate of 60 μl/min at 25° C. […] The thin lines represent the global fit to the response data. […] Results shown are means±SD of three experiments. Representative binding traces are shown.
Biacore T200 (GE Healthcare) was used for analysis. APC or PC dissolved in 10 mM acetate buffer (pH 5.0) was immobilized on a CM5 sensor chip to a response unit (RU) of 1000 with an amine coupling kit. Associations and dissociations of DrKIn-I were performed in 10 mM HEPES (N-2-hydroxyethylpiperazine-N′-2-ethanesulfonic acid; pH 7.4), 150 mM NaCl, 3 mM EDTA (ethylenediaminetetraacetic acid) and 0.05% P20 with a flow rate of 60 μl/min. The sensor surface was regenerated with 90 μl of 2 M MgCl2 and the signals obtained were subtracted by that obtained from the reference channel that had not been coated with ligands. Binding kinetics were determined by global fitting to 1:1 Langmuir binding model using the Biaevaluation software (GE Healthcare).
(SPR reads the build-up and loss of mass on a sensor chip optically.)

For a further assay, the target named is T2, factor Xa (FXa) (Homo sapiens, UniProt P00742).
T2 construct: factor Xa (FXa); purchased Haematologic Technologies
Briefly: Selectivity profile, amidolytic activity of FXa. It is filed as biochemical. As to the method:
as §1, §2

The subject of assay [1] is endogenously generated APC in normal plasma. Briefly: Thrombin generation assay in normal plasma. It is filed as biochemical. As to conditions: 200 nM DrKIn-I, 100 nM TM, 2 μg/ml heparan sulfate. Here is the method:
Thrombin generation in normal (A) and protein C-deficient (B) plasma. Experiments were performed in the presence of heparan sulfate (2 μg/ml). Solid lines represent thrombin generation in the presence of 100 nM thrombomodulin (TM) and varying concentrations of DrKIn-I (●, 0 nM; ▪, 40 nM; ▴, 80 nM; ◯, 200 nM). Dashed lines represent thrombin generation in the absence of TM and DrKIn-I.
Briefly, 80 μl of either normal plasma, protein C-deficient plasma, FVIII-deficient plasma or FIX deficient plasma containing 2 μM corn trypsin inhibitor, 2 μg/ml heparan sulfate (four disaccharide units long), 30 μM DOPC/DOPS/DOPE (60:20:20) and 100 nM recombinant TM was incubated with 20 μl of 500-fold diluted TF solution (Innovin; Dade Behring) in the absence or presence of the indicated concentrations of DrKIn-I. Following incubation for 3 minutes at 37° C., thrombin generation was initiated by the dispensation of 20 μl of 2.5 mM fluorogenic substrate (Z-Gly-Gly-Arg-AMC.HCl) dissolved in 0.15 M NaCl, 60 mg/ml BSA and 100 mM CaCl2. Measurements were taken at 1 minute intervals on a SpectraMax M2^e Microplate Reader using an excitation wavelength of 360 nm and an emission wavelength of 460 nm. In some assays, experiments were performed in the absence of thrombomodulin. Results were evaluated using the Technothrombin TGA software (Technoclone).

For assay [2], the system named is APC in FVIII-deficient plasma. Briefly: APTT-based APC resistance assay in FVIII-deficient plasma. To be noted: 200 nM DrKIn-I, 40 nM APC, 2 μg/ml heparan sulfate. It is filed as biochemical. As to the method:
APTT-based clotting times were measured in normal, FVIII-deficient and FIX-deficient plasma containing 2 μg/ml heparan sulfate in the presence or absence of 40 nM APC and the indicated concentrations of DrKIn-I. Results shown are means±S.D. of at least three experiments.
50 μl of normal plasma, FVIII-deficient plasma or FIX-deficient plasma supplemented with 2 μg/ml heparan sulfate (four disaccharide units long) was exposed to APC (40 nM) and varying concentrations of DrKIn-I (50-200 nM). 50 μl of activated partial thromboplastin (APTT) reagent (HYPHEN Biomed) was added and incubated for 1 minute at 37° C. Finally, clotting was initiated by adding 50 μl of 20 mM CaCl2. Coagulation times, which reflect the activities of APC, were recorded on a coagulometer (Hemostasis Analyzer KC-1; Sigma Diagnostics).

The next assay addresses T3, thrombin (Homo sapiens, UniProt P00734).
T3 construct: thrombin, plasma kallikrein and plasmin were obtained; purchased Haematologic Technologies
The assay is described as follows: Selectivity profile, amidolytic activity of thrombin. In kind it is biochemical. As to the method:
as §1, §2

T1 sequence (P03951 388-625 limits assumed): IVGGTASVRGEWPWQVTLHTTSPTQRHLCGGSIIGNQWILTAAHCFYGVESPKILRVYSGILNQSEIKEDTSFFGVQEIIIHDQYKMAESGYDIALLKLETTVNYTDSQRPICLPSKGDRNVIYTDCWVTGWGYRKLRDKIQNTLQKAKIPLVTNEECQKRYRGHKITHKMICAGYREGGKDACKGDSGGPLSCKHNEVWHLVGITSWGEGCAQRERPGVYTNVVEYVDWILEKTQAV
T1 sequence (P03951 19-387 limits assumed): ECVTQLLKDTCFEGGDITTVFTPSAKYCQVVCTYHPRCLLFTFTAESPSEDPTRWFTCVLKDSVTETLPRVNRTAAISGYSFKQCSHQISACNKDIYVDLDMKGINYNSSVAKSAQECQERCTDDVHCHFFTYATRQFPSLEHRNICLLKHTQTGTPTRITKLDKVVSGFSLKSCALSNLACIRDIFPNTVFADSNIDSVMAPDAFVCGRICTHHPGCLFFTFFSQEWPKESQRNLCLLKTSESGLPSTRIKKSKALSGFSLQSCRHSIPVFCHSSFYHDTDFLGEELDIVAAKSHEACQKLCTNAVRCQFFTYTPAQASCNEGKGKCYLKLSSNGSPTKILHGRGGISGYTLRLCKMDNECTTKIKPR
T2 sequence (P00742 235-488 limits assumed): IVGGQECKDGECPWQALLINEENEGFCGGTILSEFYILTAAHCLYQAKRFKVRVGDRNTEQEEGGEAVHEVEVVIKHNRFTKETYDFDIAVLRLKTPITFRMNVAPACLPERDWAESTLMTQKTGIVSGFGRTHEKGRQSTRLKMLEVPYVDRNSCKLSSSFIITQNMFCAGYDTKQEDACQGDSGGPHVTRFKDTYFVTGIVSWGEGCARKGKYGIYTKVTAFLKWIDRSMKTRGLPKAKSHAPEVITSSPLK
T2 sequence (P00742 41-179 limits assumed): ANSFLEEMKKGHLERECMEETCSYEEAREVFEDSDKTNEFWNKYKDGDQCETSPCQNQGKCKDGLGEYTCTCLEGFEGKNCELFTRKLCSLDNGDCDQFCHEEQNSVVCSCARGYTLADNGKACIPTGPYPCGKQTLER

By Ki is commonly meant a measure of affinity in units of concentration, obtained from inhibition or displacement. Consider DrKIn-I (CGGNDNNFETRKKCRQTCGAPRKGRPT), for which the inhibition of trypsin in the assay on trypsin is listed as around 45%. Besides, in the assay with FXIa (equimolar DrKIn-I and enzyme active site, FXIa 2.5 nM), the “inhibition of FXIa” value was around 40%. Also, the Ki with FXIa (in the presence of heparin, read-out: Ki for FXIa inhibition) turned out to be 1.33 ± 0.08 nM. Further, in the assay with protein C zymogen (PC), the “binding to immobilized protein C zymogen” value is “No binding was observed”. The “inhibitory activity against factor Xa” value in the assay with factor Xa (FXa) is reported as “no inhibitory activities”. Besides, the thrombin generation entry in assay [1] is “thrombin generation reached that observed in the absence of APC activity”. The clotting time result in assay [2] is listed as “almost completely restored the clotting time to that observed in the absence of APC”. In the assay with thrombin, the “inhibitory activity against thrombin” value is reported as “no inhibitory activities”.

The values are drawn from patent publication US9206246B2, “Heparin/heparan sulfate-dependent inhibitors of activated protein C and uses thereof in treating hemophilic disorders” (Academia Sinica, priority 2012, dated 2015).
